Experimental data from patent US20240076386A1 (Pfizer, published 2024).

Legend:
[1] = target: T1, recombinant histidine-tagged human E-selectin (Sino Biologicals; 13025-H08H) (human, UniProt P16581 22-556); test: direct binding ELISA, soluble recombinant protein
T1 construct: also called recombinant human E-selectin; soluble recombinant human E-selectin
T1 sequence (looked up): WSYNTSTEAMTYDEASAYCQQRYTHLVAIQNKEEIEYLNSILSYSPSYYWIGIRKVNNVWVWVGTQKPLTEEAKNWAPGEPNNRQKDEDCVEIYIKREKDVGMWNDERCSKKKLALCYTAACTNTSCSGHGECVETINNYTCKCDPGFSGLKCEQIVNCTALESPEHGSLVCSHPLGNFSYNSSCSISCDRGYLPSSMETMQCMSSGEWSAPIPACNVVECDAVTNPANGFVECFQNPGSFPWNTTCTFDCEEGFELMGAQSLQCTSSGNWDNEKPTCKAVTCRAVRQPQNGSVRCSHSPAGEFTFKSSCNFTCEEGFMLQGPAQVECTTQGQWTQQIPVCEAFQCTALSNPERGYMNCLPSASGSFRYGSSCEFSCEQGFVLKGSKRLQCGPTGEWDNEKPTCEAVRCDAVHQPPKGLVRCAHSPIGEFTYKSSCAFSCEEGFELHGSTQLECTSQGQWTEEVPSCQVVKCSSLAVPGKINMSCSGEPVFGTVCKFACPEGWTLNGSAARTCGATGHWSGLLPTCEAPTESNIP
Method: (§1) Recombinant histidine tagged human P-, E- or L-selectin (Sino Biologicals), mouse E-selectin (Sino Biologicals), rat E-selectin (Sino Biologicals) and Cynomolgus monkey E-selectin (Sino Biologicals) stock solutions were prepared to a final concentration of 1 μg/mL in phosphate buffered saline without calcium and magnesium. Controls included an L-selectin directed antibody (BioLegend; 304811) or P-selectin directed antibody or a negative control IgG. One hundred μL per well of the diluted recombinant selectin proteins were added into a Ni-NTA HisSorb 96 well plate (Qiagen; 35061). Plates were incubated on an orbital shaker at room temperature for 2 hours. Following the incubation, the plates were washed 3 times with 200 μL of wash buffer (50 mM TRIS [trisaminomethane]; 150 mM sodium chloride; 0.05% polysorbate 20, pH 7.4). […] Anti L-selectin and anti-rat-E-selectin antibodies were detected using 1 to 25000 dilution of Peroxidase-conjugated AffiniPure Goat Anti-Mouse IgG (H+L); (Jackson ImnnunoResearch Lab).
(§2) Plates were washed and 100 μL per well of 1-Step Ultra TMB substrate (Thermo Scientific) was added and incubated for 5 minutes at room temperature. Reactions were stopped with 100 μL of 2 M sulfuric acid and absorbance read at 450 nm (Spectramax M5e).

[2] = target: T2, recombinant histidine-tagged cynomolgus monkey E-selectin (Sino Biologicals; 190169-C08H) (cynomolgus monkey, UniProt A0A2K5U7H9 22-554); test: direct binding ELISA, soluble recombinant protein
T2 construct: also called recombinant cynomolgus monkey E-selectin
T2 sequence: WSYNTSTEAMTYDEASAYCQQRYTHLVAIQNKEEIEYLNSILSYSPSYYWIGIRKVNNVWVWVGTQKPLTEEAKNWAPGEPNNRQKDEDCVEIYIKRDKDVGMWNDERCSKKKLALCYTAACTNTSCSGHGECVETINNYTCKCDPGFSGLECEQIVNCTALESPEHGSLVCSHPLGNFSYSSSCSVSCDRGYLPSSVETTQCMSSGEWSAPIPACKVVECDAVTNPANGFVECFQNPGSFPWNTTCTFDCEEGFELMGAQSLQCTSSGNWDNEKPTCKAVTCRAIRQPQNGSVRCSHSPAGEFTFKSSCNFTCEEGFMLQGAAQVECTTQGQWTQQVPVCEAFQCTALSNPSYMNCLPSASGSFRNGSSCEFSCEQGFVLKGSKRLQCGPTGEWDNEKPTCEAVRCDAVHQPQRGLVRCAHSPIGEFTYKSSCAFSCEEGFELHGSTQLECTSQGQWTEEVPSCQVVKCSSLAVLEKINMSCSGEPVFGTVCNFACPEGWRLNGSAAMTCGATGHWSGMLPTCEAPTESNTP
Method: as §1, §2

[3] = target: T1, recombinant histidine-tagged human …; test: competition ELISA on soluble E-selectin vs sialyl Lewis A, further assays
Method: (§3) Recombinant histidine-tagged E-selectin; cynomolgus monkey E-selectin (Sino Biologicals; 190169-C08H) and human E-selectin (Sino Biologicals; 13025-H08H) stock solutions were prepared to a final concentration of 3 μg/mL in phosphate buffered saline (PBS) without calcium and magnesium. One hundred μL per well of the diluted recombinant E-selectin protein was added into a Ni-NTA HisSorb 96 well plate (Qiagen, 35061) and plates were incubated on an orbital shaker at room temperature for 2 hours. Sialyl Lewis A polyacrylamide biotin, a synthetic E-selectin ligand (GlycoTech corporation 01-044), was conjugated to streptavidin HRP (horse radish peroxidase) (Ultra Streptavidin HRP, Thermo Scientific N504) and diluted in assay diluent containing 2 mM calcium chloride (BD OptEIA buffer; BD Biosciences, 555213).
(§4) Following the incubation, the plates were washed 5 times with 200 μL of wash buffer containing 2 mM of calcium chloride (50 mM TRIS [trisaminomethane]; 150 mM sodium chloride, 0.05% polysorbate 20, pH 7.4; 2 mM of calcium chloride). […] The final antibody concentration ranged from 200 nM to 0.09 nM and the final concentration of HRP conjugated Sialyl Lewis A was 5 μg/mL. […] Reactions were stopped with 100 μl of 2M sulfuric acid and absorbance read at 450 nm (Spectramax M5e). Data were analyzed and graphed using GraphPad Prism software (Version 8.0.2).

[4] = target: T2, recombinant histidine-tagged cynomolgus …; test: as above
Method: as §3, §4

B1: optimized anti-E-selectin antibody 1444 (antibody, human IgG1, kappa, V domains shown)
VH: EVQLVESGGGLVQPGGSLRLSCAASGYAIRSAYMHWVRQAPGKGLEWVARIDPANGNTIYVDSVTGRFTISADNAKNSAYLQMNSLRAEDTAVYYCAMDLYSTSEYWGQGTLVTVSS
VL: DIQMTQSPSSLSASVGDRVTITCKTSQNIERYLNWYQQKPGKAPKLLIYAASSLQSGVPSRFSGSGSGTDFTLTISSLQPEDFATYFCLQDNAWPLTFGQGTKVEIKR
notes: effector-null human IgG1, kappa
EC50 [1]: 0.085 to 0.12 nM
EC50 [2]: 0.071 to 0.093 nM
IC50 [3]: 2.91 nM
IC50 [4]: 2.45 nM
